Measured values from patent publication US20060253917A1 (published 2006).
Ends that are not written are not given here.

T1: OsERP (PN20696) aa 50-145 (Oryza sativa, UniProt Q0JBH9 50-144)
T1 construct: bait, Gal4 DBD fusion; also called Elicitor responsive protein
T1 sequence: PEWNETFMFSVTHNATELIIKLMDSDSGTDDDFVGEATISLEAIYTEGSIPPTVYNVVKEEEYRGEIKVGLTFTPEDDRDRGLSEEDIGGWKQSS

T2: OsGF14-c aa 1-150 (Oryza sativa, UniProt Q6ZKC0 1-150)
T2 construct: bait, Gal4 DBD fusion; also called PN12464; O. sativa 14-3-3 Protein Homolog GF14-c
T2 sequence: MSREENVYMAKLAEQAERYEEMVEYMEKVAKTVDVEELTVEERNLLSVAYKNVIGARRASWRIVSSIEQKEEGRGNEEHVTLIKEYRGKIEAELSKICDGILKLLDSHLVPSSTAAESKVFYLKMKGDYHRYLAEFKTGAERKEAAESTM

T3: OsCS aa 316-583 (Oryza sativa, UniProt A2Y0X2 316-583)
T3 construct: bait, Gal4 DBD fusion; also called PN19707
T3 sequence: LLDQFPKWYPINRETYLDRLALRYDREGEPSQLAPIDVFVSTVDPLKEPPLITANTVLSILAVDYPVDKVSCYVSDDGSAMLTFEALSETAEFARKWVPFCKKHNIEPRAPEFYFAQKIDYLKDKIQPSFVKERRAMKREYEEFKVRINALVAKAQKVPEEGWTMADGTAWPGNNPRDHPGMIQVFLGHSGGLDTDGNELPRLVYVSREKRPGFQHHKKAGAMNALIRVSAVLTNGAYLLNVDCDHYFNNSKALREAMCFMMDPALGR

B1: PN30845 aa 1-64 (other)
chain: GDQGRTYLFRVSNVGVKTSVNVRIQGHSLRLVEVEGTHPVQNVYDSLDVHVGQSVAFLVTLDKA
notes: prey, AD fusion; also called Pectinesterase-like
B2: PN30843 aa 164-221 (other)
chain: RALQNFTAEELLDGGEKQYQCQRCRKKVVAKKKFTIDKAPYVLTIHLKRFSPFNPREK
modifications: cysteine pairing not given here; also: AD fusion
notes: prey, AD fusion; also called Ubiquitin specific protease-like
B3: PN29983 aa 1-131 (other)
chain: GVETVVTDTAGNKVVVTGAADAAELKERIEARTKKAVQIVSAGAGPPPKKDKEEKKDKDKKGGGDDKKAEKEKGGGGGDKKAEKEKGGGDKPKEEKKAKEPKEETVTLKIRLHCEGCIDRIKRRICKIKGG
notes: prey, AD fusion; also called Novel protein PN29983
B4: PN29984 aa 1-38 (other)
chain: APSSSSGTTSRPTASRTQQTKGRLTVTISLKAYSPGRT
notes: prey, AD fusion; also called Novel Protein PN29984
B5: PN30868 aa 167-336 (other)
chain: YNELAQLRAGKSSKSKLLIAKFKSPKSLNGWEVDQGSYFPNTFASRFDEGIDASFDFSEAGQAVFSGFVFTRGGYVEISKRLSLPLGSTLDRYDGLLFSVGGNGRSYVVILETGPLADTSQSKKYFARMTTKVGFCRVRVPFSAFRPVNPQDPPLDPFLVHTLTIRFEPK
notes: prey, AD fusion
B6: PN30870 aa 1-446 (other)
chain: GEEDEHPHEGRAGVERRRQHVVVLLPPPLAVLEHEVVEDGARDEPARDVGRRRRRHPGEPVGDDGDVDERDPLLLRERPAEQPHRHGQHGAGEEQPHQVAVQAVAAEQPGGADEPPDHRRVERDPVLGARPRAVRVQRLHVADVVDAAQHPPRHRQVHHAGDHRAHQLRRVHAPRRDLHVVPQLEVREERQRVHRADPPVDLEQQVRDRLPRQRVPDHELRDDVVPRLLVGGGLDDADGEGDDEGEGEGEEHPPPRQLHLLPVHERHDQRHGDAADEQHEEPPLRHLLVPPHQLRVHVHLRRRGAHRRPALPPDVPAVEQRHVHDRRREPQEPGPDGDGEQRAQVQLPVALVRRHVEVELPREHLGGVVLLPGRREQLVGEDWELPRVERVELPVAERHDEVDEHDEARGGVGDGRPRRHQRAPVVRRDAGPVQCEGADAEAVVAG
notes: prey, AD fusion; also called Isp-4 like
B7: PN30857 aa 1-148 (other)
chain: QDTRPLQAQRRRHGGGPQDRQREPSQGDFLRRQREEHPGGEEDRAPHGAGGHAAAGEGRGPRAGEHPQHQGGAAGAVGGGREGGGRAHLLRPRRHRDIGDRVGHTYCLSRLRRIAQNEQPSIHPCPSLAGQVIIRWEFRIGRDNNTFQ
notes: prey, AD fusion; also called Novel protein PN30857
B8: PN30844 aa 1-64 (other)
chain: VAVRKKETRDGAMQTMPSRVQQGAADFEETLFVRCHLYCSGGAGTGKPLRFEPRPFLLSAVAVE
notes: prey, AD fusion; also called Novel protein PN30844
B9: PN29984 aa 5-41 (other)
chain: SSGTTSRPTASRTQQTKGRLTVTISLKAYSPGRTRSG
notes: as for B4
B10: OsPN22858 aa 27-154 (other)
chain: DKPTDGFSSIDEAIGALHEGKFVIAVDDESGDNEGDLVMAATLADPESIAFMIRNGSGIISVGMKEEDLTRLMIPMMSPIAEIEDISAAASTVTVDARVGISTGVSAADRAKTIFTLASPDSKPTDLR
notes: prey, AD fusion; also called Novel Protein 22858, Fragment, similar to Arabidopsis GTP Cyclohydrolase II
B11: OsPN22866 aa 95-305 (other)
chain: LLALSDDLVKSNVFIEGVSHKIRRQIEELERAGGVESGALTVDGVPVDTYLTRFVWDEGKYPTMSPLKEIAGSIQSQVSKIEDDMKVRGAEYNNVRSQLNAINRKQTGSLAVRDLSNLVKPEDMVTSEHLVTLLAVVPQYSQKDWLSSYESLDTFVVPRSSKKLYEDNEYALYTVTLFAKVVDNFKVRAREKGFQVRDFEYSSEAQESRKE
notes: prey, AD fusion; also called Novel Protein PN22866, Fragment, Similar to A. Thaliana Vacuolar ATP Synthase Subunit C
B12: OsRCAA1 aa 68-210 (other)
chain: DISDDQQDITRGKGFVDSLFQAPTGDGTHEAVLSSYEYLSQGLRTYDFDNTMGGFYIAPAFMDKLVVHISKNFMTLPNIKVPLILGIWGGKGQGKSFQCELVFAKMGINPIMMSAGELESGNAGEPAKLIRQRYREAADIIKK
notes: prey, AD fusion; also called PN19842; O. sativa Ribulose Bisphosphate Carboxylase/Oxygenase Activase, Large Isoform A1
B13: OsPN30846 aa 1-266 (other)
chain: APRRPSTFLNAVALGNVGAGKSAVLNSLIGHPVLPTGENGATRAPIVVDLQRDPGLSSKSIVLQIDSKSQRVSASSLRHSLQDRLSKGASSGSSRGRVEGINLKLRTSTAPPLKLVDLPGIDQRAVDDPMINEYAGHNDAILLVVIPAMQAADVASSRALRLAKDIDADGTRTVGVISKVDQAEGDAKTIACVQALLLNKGPKNLPDIEWVALIGQSVAIASAQAAGSENSLETAWNAEAETLRSILTGAPKSKLGRIALVDTIAK
notes: prey, AD fusion; also called Novel Protein PN30846
B14: OsPN30974 aa 38-178 (other)
chain: GGYDHPGLIPGLPDEISLQILARMPRMGYLNAKMVSRSWKAAITGVELYRVRKELGVSEEWLYMLTKSDDGKLVWNAFDPVCGQWQRLPLMPGISHGGECKRGIPGLWLGDLLSAGIRVSDVIRGWLGQRDSLDRLPFCGC
notes: prey, AD fusion; also called Novel Protein PN30974
B15: OsPN23059 aa 90-169 (other)
chain: PRRLTFDEIQSKTYMEVKGTGTANQCPTVEGGVDSFAFKAGKYNMKKFCLEPTSFTVKAEGVAKNAPPEFQKTKLMTRLT
notes: prey, AD fusion; also called OsContig4331
B16: OsPN23059 aa 193-333 (other)
chain: DGIDYAAVTVQLPGGERVPFLFTIKNLVATGKPESFGGPFLVPSYRGSSFLDPKGRGGSTGYDNAVALPAGGRGDEEELAKENVKNASSSTGNITLSVTKSKPETGEVIGVFESVQPSDTDLGAKVPKDVKIQGVWYAQLE
notes: prey, AD fusion; also called OsContig4331, O. sativa Putative 33 kDa Oxygen-Evolving Protein of Photosystem II
B17: OsAAB46718 aa 82-126 (other)
chain: SPEEWSPTGDTYVGGTTGLLIWAVTLAGLLGGGALLVYNTSALAG
modifications: not fully specified
notes: prey, AD fusion; also called PN22840; O. sativa Photosystem II 10 kDa Polypeptide
B18: OsPN22874 aa 1-88 (other)
chain: GTNPGFRVGEIRLSNRDIYFGTLLGNTPEGSGRYVWSDGCTYDGEWRRGMRHGQGKTMWPSGATYEGEYSGGYIYGEGTYTGSDNIVY
notes: prey, AD fusion; also called Novel Protein 22874, Fragment, similar to Arabidopsis Putative Phosphatidylinositol-4-phosphate 5-kinase
B19: OsBAA02730 aa 206-269 (other)
chain: QDNGLVPIVEPEILLDGEHGIDRTFEVAQKVWAETFFYMAENNVMFEGILLKPSMVTPGAECKD
notes: prey, AD fusion; also called PN22832; O. sativa Fructose-Bisphosphate Aldolase, Chloroplast Precursor
B20: OsBAB61062 aa 463-511 (other)
chain: AIDTYDDHRMAMAFSLAACADVPVTIRDPGCTRKTFPNYFDVLSTFVRN
modifications: not fully specified; cysteine pairing not given here
notes: prey, AD fusion; also called PN22844; O. sativa 3-Phosphoshikimate 1-carboxyvinyltransferase (EPSP Synthase)
B21: OsPN23061 aa 94-203 (other)
chain: VITWTSPKEQVFEMPTGGAAIMREGPNLLKLARKEQCLALGTRLRSKYKINYQFYRVFPNGEVQYLHPKDGVYPEKVNAGRQGVGQNFRSIGKNVSPIEVKFTGKNVFDI
notes: prey, AD fusion; also called Hypothetical Protein OsContig3864, Similar to H. vulgare Photosystem I Reaction Center Subunit II, Chloroplast Precursor
B22: OsPN29982 aa 201-300 (other)
chain: SPVVDNADVTETKPQTELPVHVMCAEWSSQKRLKKVQLETLERVYSRTKRPTNTMISSIVQVTSLPRKTIVKWFEDRREQDGVPDHRVAFKRSLSETIAS
notes: prey, AD fusion; also called Novel Protein PN29982
B23: OsPN29076 aa 1-187 (other)
chain: ERDISMVNSYPPSAFDCKGWNSASIFIYESDEEIQCLLDWLRDYDPREKELKDSILQWQRHFCHQSSSPLVDPPISGPKGEQLMELPNTKAAVILEQKYGLQLDQDTSDLPKKRGKKIKLSSEDRTYRCDCLEPVWPSRYHCLTCHETYLISTEFEGHNDGKCSKIHQSPDESRENDEPKVKVTKSD
notes: prey, AD fusion; also called Novel Protein PN29076, Fragment
B24: OsAAB53810 aa 6-145 (other)
chain: IGPWGGNGGSAQDISVPPKKLLGVTIYSSDAIRSIAFNYIGVDGQEYAIGPWGGGESTSTEIKLGSSEQIKEISGTHGPVYDLADIVTYLKIVTSANNTYEAGVPNGKEFSIPLQDSGHVVGFFGRSGTLIDAIGIYVHP
notes: prey, AD fusion; also called PN29086; O. sativa salT Gene Product
B25: OsPIP2A aa 123-290 (other)
chain: RKVSLVRAILYIVAQCLGAICGVGLVNAFPNAYFNRYGGGANTLAAGYSKGTGLAAEIIGTFVLVYTVFSATDPKRNARDSHVPVLAPLPIGFAVFMVHLATIPITGTGINPARSIGAAVIFNNEKAWHNHWIFWVGPFVGAAIAAFYHQYILRAGAIKALGSFRSNA
notes: prey, AD fusion; also called PN29098; O. sativa Aquaporin

Molecular target: T1, OsERP (PN20696) aa 50-145
Test: Y2H; input trait library
Procedure, shortened: (§1)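 Using an automated, high-throughput yeast two-hybrid assay provided by Myriad Genetics Inc. (Salt Lake City, Utah), protein-protein interactions were detected. Against either the input trait or the output trait rice prey library, a bait clone encoding a defined amino-acid fragment of a rice protein was screened. The encoding sequences of the prey clones that were retrieved were then compared against databases by BLAST to identify the interacting proteins.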

Binding result, binds:
B1, B2, B3, B4, B5, B6, B7, B8, B9

Molecular target: T2, OsGF14-c aa 1-150
Test: Y2H; input trait library
Procedure, shortened: as §1

Binding result, binds:
B10, B11, B12, B13, B14, B15, B16, B17, B18, B19, B20, B21, B22

Molecular target: T3, OsCS aa 316-583
Test: Y2H; output trait library
Procedure, shortened: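 Rice protein fragments, each defined by an amino-acid range, served as bait against rice prey clone libraries in an automated, high-throughput yeast two-hybrid screen supplied by Myriad Genetics Inc. Prey clones that interacted were retrieved from the output trait library. The sequences encoding the retrieved fragments were compared against databases by BLAST analysis to identify the full-length genes. Each value records whether an interaction was detected.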

Binding result, binds:
B23, B24, B25
